Residue numbers refer to the chain shown, from its start.
B1: PRO1480 (other)
chain: DIQMTQSPASLSASVGDRVTITCQASQSIGTYLAWYQQKPGKPPKLLIYRAFILASGVPSRFSGSGSGTDFTLTISSLQPEDFATYYCQSNFYSDSTTIGPNAFGTGTKVTVLGGGGGSEVQLVESGGGLVQPGGSLRLSCAASGFSFSANYYPCWVRQAPGKGLEWIGCIYGGSSDITYDANWTKGRFTISRDNSKNTVYLQMNSLRAEDTAVYYCARSAWYSGWGGDLWGQGTLVTVSSGGGGSGGGGSGGGGSGGGGSIQMTQSPSSLSASVGDRVTITCQASQSISNRLAWYQQKPGKAPKLLIYSASTLASGVPSRFSGSGSGTDFTLTISSLQPEDFATYYCQSTYYGNDGNAFGTGTKVTVLGGGGGSEVQLVESGGGLVQPGGSLRLSCAASGFSFNSDYWIYWVRQAPGKGLEWIASIYGGSSGNTQYASWAQGRFTISRDNSKNTVYLQMNSLRAEDTAVYFCARGYVDYGGATDLWGQGTLVTVSSGGGGSGGGGSIQMTQSPSSLSASVGDRVTITCQSSESVYSNNQLSWYQQKPGQPPKLLIYDASDLASGVPSRFSGSGSGTDFTLTISSLQPEDFATYYCAGGFSSSSDTAFGGGTKLTVLGGGGGSGGGGSGGGGSGGGGSEVQLVESGGGLVQPGGSLRLSCAASGFSLSSNAMGWVRQAPGKGLEYIGIISVGGFTYYASWAKGRFTISRDNSKNTVYLQMNSLRAEDTATYFCARDRHGGDSSGAFYLWGQGTLVTVSS
B2: PRO1481 (other)
chain: B1 chain with V121S, Y216F, Q233P, I262F, M264L, A303P

Target: human CD137 expressed on Jurkat cells (human, UniProt Q07011 24-255)
Test: cell-based or functional assay

| Binder | IC50 (ng/ml), activation of NF-kB reporter gene, HCC827 +IFNg, 6 h, with HSA [ng/mL] | IC50 (ng/ml), activation of NF-kB reporter gene, HCC827 +IFNg, 24 h, with HSA [ng/mL] |
| --- | --- | --- |
| B1 | 6.44 | 4.67 |
| B2 | 7.22 | 5.51 |

Reference: patent EP3636320A1 (Numab Therapeutics AG, dated 2020)
